# According to IntAct's records for PubMed 31515488:
# B1: Keratin, type I cytoskeletal 40 (Homo sapiens), Q6A162 (parent)
# chain: MTSDCSSTHCSPESCGTASGCAPASSCSVETACLPGTCATSRCQTPSFLSRSRGLTGCLLPCYFTGSCNSPCLVGNCAWCEDGVFTSNEKETMQFLNDRLASYLEKVRSLEETNAELESRIQEQCEQDIPMVCPDYQRYFNTIEDLQQKILCTKAENSRLAVQLDNCKLATDDFKSKYESELSLRQLLEADISSLHGILEELTLCKSDLEAHVESLKEDLLCLKKNHEEEVNLLREQLGDRLSVELDTAPTLDLNRVLDEMRCQCETVLANNRREAEEWLAVQTEELNQQQLSSAEQLQGCQMEILELKRTASALEIELQAQQSLTESLECTVAETEAQYSSQLAQIQCLIDNLENQLAEIRCDLERQNQEYQVLLDVKARLEGEINTYWGLLDSEDSRLSCSPCSTTCTSSNTCEPCSAYVICTVENCCL
# B2: PIH1 domain-containing protein 2 (Homo sapiens), Q8WWB5 (parent)
# chain: METSSKGLLTQVTQFWNLLDDLAQSDPEGYEKFIQQQLKEGKQLCAAPEPQLCLQTRILKPKEKILFINLCQWTRIPAPQSTTHPVPLTVGKPEDTTEISDAYTVIDVAYNPDVLHAAEKDQVKKNQLIQMAMKCIEEKFQFTLSHSYHITKFRIKGSIQRMKQNLMGIQTDSIDLREKMRRELTLGQIRSSTMSNPDHFPQLLLPKDQVSGKAVCLIEEISSTEIQVEMKMPAYELKIVHDHSEKPLKIELKVELPGINSVSLCDLSVSEDDLLIEVSEKYRLHLNLPKLIDTEMTTAKFIKEKSTLIITMPLV
# partner: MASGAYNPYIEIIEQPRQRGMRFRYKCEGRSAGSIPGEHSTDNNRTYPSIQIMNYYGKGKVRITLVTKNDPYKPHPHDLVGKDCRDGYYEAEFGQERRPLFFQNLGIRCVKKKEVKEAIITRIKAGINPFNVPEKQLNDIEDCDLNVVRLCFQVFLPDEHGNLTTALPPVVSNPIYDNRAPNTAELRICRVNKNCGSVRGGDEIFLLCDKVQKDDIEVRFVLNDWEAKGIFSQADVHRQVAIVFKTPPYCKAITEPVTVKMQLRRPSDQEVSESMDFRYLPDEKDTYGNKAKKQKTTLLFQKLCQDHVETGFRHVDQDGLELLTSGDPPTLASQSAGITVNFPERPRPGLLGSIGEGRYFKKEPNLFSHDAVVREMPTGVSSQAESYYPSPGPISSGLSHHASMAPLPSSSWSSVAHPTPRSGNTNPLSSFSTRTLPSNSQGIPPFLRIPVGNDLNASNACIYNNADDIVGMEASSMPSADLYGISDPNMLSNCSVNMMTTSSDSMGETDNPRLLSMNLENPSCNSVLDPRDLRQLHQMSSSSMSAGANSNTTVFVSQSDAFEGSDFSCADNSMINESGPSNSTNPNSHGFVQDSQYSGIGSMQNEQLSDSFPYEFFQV
# B3: Zinc finger and SCAN domain-containing protein 9 (Homo sapiens), O15535 (parent)
# chain: MNTNSKEVLSLGVQVPEAWEELLTMKVEAKSHLQWQESRLKRSNPLAREIFRRHFRQLCYQETPGPREALTRLQELCYQWLRPHVSTKEQILDLLVLEQFLSILPKELQGWVREHCPESGEEAVILLEDLERELDEPQHEMVAHRHRQEVLCKEMVPLAEQTPLTLQSQPKEPQLTCDSAQKCHSIGETDEVTKTEDRELVLRKDCPKIVEPHGKMFNEQTWEVSQQDPSHGEVGEHKDRIERQWGNLLGEGQHKCDECGKSFTQSSGLIRHQRIHTGERPYECNECGKAFSRSSGLFNHRGIHNIQKRYHCKECGKVFSQSAGLIQHQRIHKGEKPYQCSQCSKSYSRRSFLIEHQRSHTGERPHQCIECGKSFNRHCNLIRHQKIHTVAELV
# B4: Syntenin-2 (Homo sapiens), Q9H190 (parent)
# chain: MSSLYPSLEDLKVDQAIQAQVRASPKMPALPVQATAISPPPVLYPNLAELENYMGLSLSSQEVQESLLQIPEGDSTAVSGPGPGQMVAPVTGYSLGVRRAEIKPGVREIHLCKDERGKTGLRLRKVDQGLFVQLVQANTPASLVGLRFGDQLLQIDGRDCAGWSSHKAHQVVKKASGDKIVVVVRDRPFQRTVTMHKDSMGHVGFVIKKGKIVSLVKGSSAARNGLLTNHYVCEVDGQNVIGLKDKKIMEILATAGNVVTLTIIPSVIYEHMVKKLPPVLLHHTMDHSIPDA
# partner: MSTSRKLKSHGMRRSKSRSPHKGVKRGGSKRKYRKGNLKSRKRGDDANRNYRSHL
# B5: Tuftelin-interacting protein 11 (Homo sapiens), Q9UBB9 (parent)
# chain: MSLSHLYRDGEGRIDDDDDERENFEITDWDLQNEFNPNRQRHWQTKEEATYGVWAERDSDDERPSFGGKRARDYSAPVNFISAGLKKGAAEEAELEDSDDEEKPVKQDDFPKDFGPRKLKTGGNFKPSQKGFAGGTKSFMDFGSWERHTKGIGQKLLQKMGYVPGRGLGKNAQGIINPIEAKQRKGKGAVGAYGSERTTQSMQDFPVVDSEEEAEEEFQKELSQWRKDPSGSKKKPKYSYKTVEELKAKGRISKKLTAPQKELSQVKVIDMTGREQKVYYSYSQISHKHNVPDDGLPLQSQQLPQSGKEAKAPGFALPELEHNLQLLIDLTEQEIIQNDRQLQYERDMVVNLFHELEKMTEVLDHEERVISNLSKVLEMVEECERRMQPDCSNPLTLDECARIFETLQDKYYEEYRMSDRVDLAVAIVYPLMKEYFKEWDPLKDCTYGTEIISKWKSLLENDQLLSHGGQDLSADAFHRLIWEVWMPFVRNIVTQWQPRNCDPMVDFLDSWVHIIPVWILDNILDQLIFPKLQKEVENWNPLTDTVPIHSWIHPWLPLMQARLEPLYSPIRSKLSSALQKWHPSDSSAKLILQPWKDVFTPGSWEAFMVKNIVPKLGMCLGELVINPHQQHMDAFYWVIDWEGMISVSSLVGLLEKHFFPKWLQVLCSWLSNSPNYEEITKWYLGWKSMFSDQVLAHPSVKDKFNEALDIMNRAVSSNVGAYMQPGARENIAYLTHTERRKDFQYEAMQERREAENMAQRGIGVAASSVPMNFKDLIETKAEEHNIVFMPVIGKRHEGKQLYTFGRIVIYIDRGVVFVQGEKTWVPTSLQSLIDMAK
# Variants of: B1
# Settings: with wt1_human WT1, P19544
# wt1_human WT1, P19544, sequence (P19544 whole entry): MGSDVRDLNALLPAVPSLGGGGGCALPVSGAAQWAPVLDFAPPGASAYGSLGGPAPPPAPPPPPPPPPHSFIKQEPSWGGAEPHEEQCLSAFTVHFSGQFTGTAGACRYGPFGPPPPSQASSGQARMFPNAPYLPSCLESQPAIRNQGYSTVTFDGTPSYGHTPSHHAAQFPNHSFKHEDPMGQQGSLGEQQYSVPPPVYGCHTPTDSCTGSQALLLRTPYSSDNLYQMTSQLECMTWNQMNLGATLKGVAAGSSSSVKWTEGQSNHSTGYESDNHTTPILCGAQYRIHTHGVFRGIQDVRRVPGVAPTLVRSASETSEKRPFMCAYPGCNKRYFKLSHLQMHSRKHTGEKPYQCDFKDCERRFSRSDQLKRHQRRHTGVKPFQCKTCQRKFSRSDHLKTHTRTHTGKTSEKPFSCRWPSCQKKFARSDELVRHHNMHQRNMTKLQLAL
row,Variant,effect of a mutation on the interaction
1,S406L,with no effect
2,A115T,with no effect
3,S102N,with no effect
4,C349R,with no effect
5,T153M,with no effect

# Variants of: B1
# Settings: with k2c4_human KRT4, P19013
# k2c4_human KRT4, P19013, sequence (P19013 whole entry): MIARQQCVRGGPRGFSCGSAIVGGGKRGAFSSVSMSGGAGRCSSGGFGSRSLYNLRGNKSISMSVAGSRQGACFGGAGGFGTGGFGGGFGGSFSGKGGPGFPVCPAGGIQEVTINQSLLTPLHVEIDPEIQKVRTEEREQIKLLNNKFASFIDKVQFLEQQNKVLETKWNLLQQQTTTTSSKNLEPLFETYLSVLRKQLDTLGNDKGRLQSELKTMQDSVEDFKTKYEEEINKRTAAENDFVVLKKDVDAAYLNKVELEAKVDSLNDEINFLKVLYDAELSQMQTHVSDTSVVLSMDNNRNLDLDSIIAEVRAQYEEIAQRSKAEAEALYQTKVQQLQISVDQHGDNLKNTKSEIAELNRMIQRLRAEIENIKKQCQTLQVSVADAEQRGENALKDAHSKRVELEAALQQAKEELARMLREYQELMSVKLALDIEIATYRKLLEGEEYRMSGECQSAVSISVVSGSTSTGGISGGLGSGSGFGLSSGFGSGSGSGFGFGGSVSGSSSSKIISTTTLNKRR
row,Variant,effect of a mutation on the interaction
1,S406L,with no effect
2,A115T,with no effect
3,S102N,with no effect
4,C349R,with no effect
5,T153M,with no effect

# Variants of: B1
# Settings: with mta1_human MTA1, Q13330
# mta1_human MTA1, Q13330, sequence (Q13330 whole entry): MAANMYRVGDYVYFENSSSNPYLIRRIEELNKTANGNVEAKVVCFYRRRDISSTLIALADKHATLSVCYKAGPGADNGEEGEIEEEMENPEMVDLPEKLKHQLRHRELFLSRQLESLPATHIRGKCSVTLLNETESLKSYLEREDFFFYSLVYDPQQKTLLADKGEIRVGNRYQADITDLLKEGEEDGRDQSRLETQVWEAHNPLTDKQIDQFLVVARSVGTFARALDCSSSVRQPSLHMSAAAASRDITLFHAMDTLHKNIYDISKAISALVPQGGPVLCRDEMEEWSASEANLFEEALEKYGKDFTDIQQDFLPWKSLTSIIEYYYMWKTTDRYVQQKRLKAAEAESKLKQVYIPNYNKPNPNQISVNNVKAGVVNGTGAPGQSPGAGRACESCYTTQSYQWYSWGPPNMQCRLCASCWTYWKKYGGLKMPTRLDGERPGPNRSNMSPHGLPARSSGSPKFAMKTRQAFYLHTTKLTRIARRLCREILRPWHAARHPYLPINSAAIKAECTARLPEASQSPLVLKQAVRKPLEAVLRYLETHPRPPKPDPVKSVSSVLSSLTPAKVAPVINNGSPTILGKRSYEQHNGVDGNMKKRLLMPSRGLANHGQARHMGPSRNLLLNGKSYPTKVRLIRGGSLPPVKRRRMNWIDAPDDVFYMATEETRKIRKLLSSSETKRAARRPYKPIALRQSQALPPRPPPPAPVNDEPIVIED
row,Variant,effect of a mutation on the interaction
1,S406L,with no effect
2,A115T,with no effect
3,S102N,with no effect
4,C349R,with no effect
5,T153M,with no effect

# Variants of: B1
# Settings: with prs8_human PSMC5, P62195
# prs8_human PSMC5, P62195, sequence (P62195 whole entry): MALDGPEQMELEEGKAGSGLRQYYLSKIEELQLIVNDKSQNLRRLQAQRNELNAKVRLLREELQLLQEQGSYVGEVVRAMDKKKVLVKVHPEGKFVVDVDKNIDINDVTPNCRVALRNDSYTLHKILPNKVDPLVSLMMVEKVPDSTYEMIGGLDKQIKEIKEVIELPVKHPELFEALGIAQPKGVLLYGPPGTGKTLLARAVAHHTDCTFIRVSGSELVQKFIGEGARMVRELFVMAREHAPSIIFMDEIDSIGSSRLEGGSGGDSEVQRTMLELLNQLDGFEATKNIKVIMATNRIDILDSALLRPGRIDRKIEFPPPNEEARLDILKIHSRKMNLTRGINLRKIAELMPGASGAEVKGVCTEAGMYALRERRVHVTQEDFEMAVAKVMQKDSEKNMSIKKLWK
row,Variant,effect of a mutation on the interaction
1,S406L,with no effect
2,A115T,with no effect
3,S102N,with no effect
4,C349R,with no effect
5,T153M,with no effect

# Variants of: B1
# Settings: with snai1_human SNAI1, O95863
# snai1_human SNAI1, O95863, sequence (O95863 whole entry): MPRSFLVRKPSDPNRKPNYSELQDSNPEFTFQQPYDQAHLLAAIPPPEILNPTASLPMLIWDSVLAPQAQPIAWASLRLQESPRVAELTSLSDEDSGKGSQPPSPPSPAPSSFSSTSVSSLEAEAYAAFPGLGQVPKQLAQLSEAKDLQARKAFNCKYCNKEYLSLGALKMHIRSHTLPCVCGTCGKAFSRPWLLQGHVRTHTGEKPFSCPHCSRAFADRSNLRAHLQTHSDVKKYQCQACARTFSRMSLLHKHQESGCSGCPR
row,Variant,effect of a mutation on the interaction
1,S406L,with no effect
2,A115T,with no effect
3,S102N,with no effect
4,C349R,with no effect
5,T153M,with no effect

# Variants of: B2
# Settings: with rel_human REL
row,Variant,effect of a mutation on the interaction
1,A117V,with no effect
2,A102D,with no effect

# Variants of: B3
# Settings: with zn446_human ZNF446, Q9NWS9
# zn446_human ZNF446, Q9NWS9, sequence (Q9NWS9 whole entry): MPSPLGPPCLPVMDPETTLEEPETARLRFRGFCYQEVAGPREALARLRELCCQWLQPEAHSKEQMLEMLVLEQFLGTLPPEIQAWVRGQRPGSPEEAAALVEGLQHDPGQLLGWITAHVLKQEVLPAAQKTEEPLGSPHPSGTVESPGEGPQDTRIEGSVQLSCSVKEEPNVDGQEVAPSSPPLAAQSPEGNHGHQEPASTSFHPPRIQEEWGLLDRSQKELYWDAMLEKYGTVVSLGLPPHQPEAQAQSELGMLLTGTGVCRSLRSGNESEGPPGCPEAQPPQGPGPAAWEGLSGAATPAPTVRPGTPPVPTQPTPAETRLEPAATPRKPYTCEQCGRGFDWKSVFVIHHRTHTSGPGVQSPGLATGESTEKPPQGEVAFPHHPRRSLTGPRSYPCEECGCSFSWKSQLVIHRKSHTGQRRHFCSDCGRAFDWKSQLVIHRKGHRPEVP
row,Variant,effect of a mutation on the interaction
1,Q34R,with no effect

# Variants of: B4
# Settings: with stp1_human TNP1, P09430
row,Variant,effect of a mutation on the interaction
1,G225R,disrupting interaction strength
2,G242R,disrupting interaction strength

# Variants of: B5
# Settings: with lca5l_human LCA5L
row,Variant,effect of a mutation on the interaction
1,M140V,with no effect

# Variants of: B5
# Settings: with ccnd3_human CCND3, P30281
row,Variant,effect of a mutation on the interaction
1,M140V,with no effect

# Variants of: B5
# Settings: with cenpu_human CENPU
row,Variant,effect of a mutation on the interaction
1,M140V,with no effect

# Variants of: B5
# Settings: with zmat2_human ZMAT2, Q96NC0
row,Variant,effect of a mutation on the interaction
1,R8Q,with no effect

# Variants of: B5
# Settings: with cox5b_human COX5B
row,Variant,effect of a mutation on the interaction
1,R8Q,with no effect

# Variants of: B5
# Settings: with txlna_human TXLNA
row,Variant,effect of a mutation on the interaction
1,R8Q,with no effect

# Variants of: B5
# Settings: with hook1_human HOOK1, Q9UJC3
# hook1_human HOOK1, Q9UJC3, sequence (Q9UJC3 whole entry): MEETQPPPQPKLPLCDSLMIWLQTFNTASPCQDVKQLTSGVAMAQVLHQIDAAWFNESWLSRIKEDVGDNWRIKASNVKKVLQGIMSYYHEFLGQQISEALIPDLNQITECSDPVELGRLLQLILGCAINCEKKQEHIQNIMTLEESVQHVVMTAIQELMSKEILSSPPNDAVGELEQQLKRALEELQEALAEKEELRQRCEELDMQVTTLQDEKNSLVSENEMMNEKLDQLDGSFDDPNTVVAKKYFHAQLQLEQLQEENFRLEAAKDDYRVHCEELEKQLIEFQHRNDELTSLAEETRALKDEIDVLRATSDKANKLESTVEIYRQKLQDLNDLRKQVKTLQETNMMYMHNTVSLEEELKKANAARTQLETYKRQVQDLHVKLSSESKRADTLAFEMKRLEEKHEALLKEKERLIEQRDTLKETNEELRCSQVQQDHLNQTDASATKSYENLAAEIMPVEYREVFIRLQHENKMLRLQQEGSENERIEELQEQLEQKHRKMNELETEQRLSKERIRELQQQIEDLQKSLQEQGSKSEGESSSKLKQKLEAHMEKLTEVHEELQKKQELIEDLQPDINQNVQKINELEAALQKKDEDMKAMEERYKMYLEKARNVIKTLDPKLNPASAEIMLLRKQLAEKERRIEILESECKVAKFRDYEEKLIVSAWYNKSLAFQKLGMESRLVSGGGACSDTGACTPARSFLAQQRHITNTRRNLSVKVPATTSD
row,Variant,effect of a mutation on the interaction
1,R8Q,with no effect

# Variants of: B5
# Settings: with tnnt1_human TNNT1, P13805
row,Variant,effect of a mutation on the interaction
1,R8Q,with no effect

# Variants of: B5
# Settings: with coq8a_human COQ8A
row,Variant,effect of a mutation on the interaction
1,R8Q,with no effect

# Variants of: B5
# Settings: with smce1_human SMARCE1, Q969G3
# smce1_human SMARCE1, Q969G3, sequence (Q969G3 whole entry): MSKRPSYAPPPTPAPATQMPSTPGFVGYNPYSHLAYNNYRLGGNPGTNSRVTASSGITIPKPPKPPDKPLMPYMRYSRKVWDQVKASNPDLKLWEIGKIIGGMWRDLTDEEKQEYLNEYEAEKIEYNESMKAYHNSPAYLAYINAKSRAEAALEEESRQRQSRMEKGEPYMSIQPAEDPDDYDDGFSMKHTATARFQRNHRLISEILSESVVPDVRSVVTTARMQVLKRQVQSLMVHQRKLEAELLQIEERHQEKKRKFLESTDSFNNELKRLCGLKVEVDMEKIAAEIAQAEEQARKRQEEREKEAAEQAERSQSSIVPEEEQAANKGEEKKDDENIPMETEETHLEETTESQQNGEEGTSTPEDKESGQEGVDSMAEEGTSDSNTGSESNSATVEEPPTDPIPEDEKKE
row,Variant,effect of a mutation on the interaction
1,R8Q,with no effect

# Variants of: B5
# Settings: with bmf_human BMF
row,Variant,effect of a mutation on the interaction
1,R8Q,with no effect

# Variants of: B5
# Settings: with fa13c_human FAM13C
row,Variant,effect of a mutation on the interaction
1,R8Q,with no effect

# Variants of: B5
# Settings: with prp31_human PRPF31, Q8WWY3
row,Variant,effect of a mutation on the interaction
1,R8Q,with no effect

# Variants of: B5
# Settings: with snw1_human SNW1, Q13573
# snw1_human SNW1, Q13573, sequence (Q13573 whole entry): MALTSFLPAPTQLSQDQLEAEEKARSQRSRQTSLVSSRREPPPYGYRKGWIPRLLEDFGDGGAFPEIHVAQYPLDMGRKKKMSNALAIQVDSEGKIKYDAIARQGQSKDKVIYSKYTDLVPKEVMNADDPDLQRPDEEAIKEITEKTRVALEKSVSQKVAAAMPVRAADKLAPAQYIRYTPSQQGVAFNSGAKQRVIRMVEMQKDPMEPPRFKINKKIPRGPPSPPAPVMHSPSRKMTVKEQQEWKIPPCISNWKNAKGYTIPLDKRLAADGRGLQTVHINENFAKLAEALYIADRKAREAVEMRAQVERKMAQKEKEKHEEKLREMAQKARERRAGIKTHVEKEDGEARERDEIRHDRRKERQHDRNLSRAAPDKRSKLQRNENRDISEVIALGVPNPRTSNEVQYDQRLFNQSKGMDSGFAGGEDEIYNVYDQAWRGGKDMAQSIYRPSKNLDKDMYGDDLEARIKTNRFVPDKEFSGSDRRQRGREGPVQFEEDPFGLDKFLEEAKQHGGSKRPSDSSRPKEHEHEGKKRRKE
row,Variant,effect of a mutation on the interaction
1,R8Q,with no effect

# Variants of: B5
# Settings: with sfr1_human SFR1, Q86XK3
row,Variant,effect of a mutation on the interaction
1,R8Q,with no effect

# Variants of: B5
# Settings: with zfy26_human ZFYVE26, Q68DK2
row,Variant,effect of a mutation on the interaction
1,R8Q,with no effect

# Variants of: B5
# Settings: with abi2_human ABI2, Q9NYB9
# abi2_human ABI2, Q9NYB9, sequence (Q9NYB9 whole entry): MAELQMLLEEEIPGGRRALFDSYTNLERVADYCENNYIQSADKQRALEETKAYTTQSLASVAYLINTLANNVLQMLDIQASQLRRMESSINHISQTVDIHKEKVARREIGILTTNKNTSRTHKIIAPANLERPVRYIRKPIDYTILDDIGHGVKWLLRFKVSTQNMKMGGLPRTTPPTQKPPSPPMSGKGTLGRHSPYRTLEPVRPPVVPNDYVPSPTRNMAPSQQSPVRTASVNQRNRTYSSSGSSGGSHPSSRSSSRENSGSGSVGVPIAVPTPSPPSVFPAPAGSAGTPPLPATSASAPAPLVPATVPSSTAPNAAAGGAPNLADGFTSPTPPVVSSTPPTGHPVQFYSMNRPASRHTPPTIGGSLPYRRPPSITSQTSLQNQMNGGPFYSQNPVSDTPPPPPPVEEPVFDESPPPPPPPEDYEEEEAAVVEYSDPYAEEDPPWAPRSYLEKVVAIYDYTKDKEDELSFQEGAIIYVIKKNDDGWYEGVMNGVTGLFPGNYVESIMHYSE
row,Variant,effect of a mutation on the interaction
1,R8Q,with no effect

# Variants of: B5
# Settings: with cc121_human CCDC121, Q6ZUS5
row,Variant,effect of a mutation on the interaction
1,R8Q,with no effect

# Variants of: B5
# Settings: with KRT6A
row,Variant,effect of a mutation on the interaction
1,R8Q,with no effect
